Legend:
Format in all cases: physicochemical
[1] = Viscosity measured with a rotation viscometer; details: gel from 1% solution in phosphate buffered physiological saline, photoirradiated, heat treatment; rotation viscometer at 20° C., standard cone (1°34′, 1 rpm)
Protocol: A 1% phosphate buffered physiological saline solution of the obtained naproxen-introduced photo-reactive HA (photo-reactive group: cinnamic acid) was prepared, and filled in a 5 mL glass syringe.
(§1) Evaluation was carried out in accordance with the following criteria.

[2] = Extrusion state from the tip of a 23 G injection needle (characteristics); set-up: key: ◯: formed a mass or a lump having a shape-maintaining property at the tip of the injection needle; X: did not form a mass; details: slowly extruded from an injection needle with 23 G downward
Protocol: as §1

[3] = Extrusion feeling through a 23 gauge injection needle; set-up: key: ◯: easily extruded; X: difficulty extruded; details: whole gel (2 ml to 5 ml) in 5 ml syringe, 23 gauge needle, limit pressure 0.5 to 5 kg/cm^2
Protocol: Evaluation was carried out in accordance with the following criteria. ◯: easily extruded X: difficulty extruded Incidentally, with regard to the criteria for the extrusion feeling, within the range of a limit pressure (0.5 to 5 kg/cm^2), when a whole gel (2 ml to 5 ml) filled in a syringe having a volume of 5 ml was extruded through an injection needle of 23 gauge, it was evaluated to as easily extruded (◯). Also, according to the same operation, when not a whole gel filled in a syringe was extruded, for example, by clogging due to insoluble materials, it was evaluated to as difficulty extruded (X).

Row | Substance | viscosity [1] [Pa·s] | Extruded state [2] | Extrusion feeling [3]
1 | actarit-introduced photo-crosslinked HA gel [Example 8] | 10.8 | ◯ | ◯
2 | etodolac-introduced photo-crosslinked HA gel [Example 7] | 12.7 | ◯ | ◯
3 | felbinac-introduced photo-crosslinked sodium hyaluronate gel [Example 5] | 7.32 | X | ◯
4 | flurbiprofen-introduced photo-crosslinked HA gel [Example 4] | 21.2 | ◯ | ◯
5 | ibuprofen-introduced photo-crosslinked HA gel [Example 3] | 13.1 | ◯ | ◯

Source: patent US8354392B2, “Drug-introduced photo-crosslinked hyaluronic acid derived gel” (priority 2005, dated 2013)
